Measurements published in patent publication US20220089698A1.
Substitutions are numbered along the chain they refer to.

B1: 3.1.9-1 (antibody, human IgG1, kappa, V domains shown)
VH: QVQLLQSGAAVTKPGASVRVSCEASGYNIRDYFIHWWRQAPGQGLQWVGWINPKTGQPNNPRQFQGRVSLTRHASWDFDTFSFYMDLKALRSDDTAVYFCARQRSDYWDFDVWGSGTQVTVSS
VL: DIQMTQSPSSLSARVGDTATITCQANGYLNWYQQRRGKAPKLLIYDGSKLERGVPARFSGRRWGQEYNLTINNLQPEDVATYFCQVYEFFGPGTRLDLKR
B2: 1.1.102-1 (antibody, human IgG1, kappa, V domains shown)
VH: B1 VH
VL: B1 VL with R14S, T18R, A56S, R61S, N68H, N72S, N73S, V79I
B3: 3.1.7-1 (antibody, human IgG1, kappa, V domains shown)
VH: B1 VH
VL: B1 VL with T18R, R61S, N68T, N72S, N73S
B4: 1.34.35-1 (antibody, human IgG1, kappa, V domains shown)
VH: B1 VH with L5V, A10E, T12K, E23K, S69T, S105T
VL: DIQMTQSPSSLSASVGDRVTITCQANGYLNWYQQKPGKAPKLLIYDGSNLETGVPSRFSGSRWGQEYTLTISSLQPEDIATYFCQVYEFVGPGTNLDIKR
B5: 3.1.17-1 (antibody, human IgG1, kappa, V domains shown)
VH: B1 VH
VL: B1 VL with N68H
B6: 3.1.18-1 (antibody, human IgG1, kappa, V domains shown)
VH: B1 VH
VL: B1 VL with T18R, R61S, N68H, N72S, N73S
B7: 2.3.9-1 (antibody, human IgG1, kappa, V domains shown)
VH: B1 VH with Q3H, L5S, L90V, V97I
VL: B1 VL
B8: 3.1.13-1 (antibody, human IgG1, kappa, V domains shown)
VH: B1 VH
VL: B1 VL with T18R, R61S, N68I, N72S, N73S
B9: 1.13.17-1 (antibody, human IgG1, kappa, V domains shown)
VH: B1 VH with I34M, W37V
VL: B1 VL with R14S, A19V, A56S, V79I
B10: 2.3.18-1 (antibody, human IgG1, kappa, V domains shown)
VH: B1 VH with Q3H, L5S, L90V, V97I
VL: B1 VL with T18R, R61S, N68H, N72S, N73S
B11: 2.2.18-1 (antibody, human IgG1, kappa, V domains shown)
VH: B1 VH with Q3H, L5S, N28K, Y32H, L90V, V97I
VL: B1 VL with T18R, R61S, N68H, N72S, N73S
B12: 1.32.35-1 (antibody, human IgG1, kappa, V domains shown)
VH: B1 VH with L5V, A10E, S105T
VL: B4 VL
B13: 2.3.12-1 (antibody, human IgG1, kappa, V domains shown)
VH: B1 VH with Q3H, L5S, L90V, V97I
VL: B1 VL with N68I
B14: 3.1.12-1 (antibody, human IgG1, kappa, V domains shown)
VH: B1 VH
VL: B1 VL with N68I
B15: 1.1.78-1 (antibody, human IgG1, kappa, V domains shown)
VH: B1 VH
VL: B1 VL with R14S, A56S, N68H, V79I
B16: 1.14.17-1 (antibody, human IgG1, kappa, V domains shown)
VH: B1 VH with I34M, W37V, F83A
VL: B1 VL with R14S, A19V, A56S, V79I
B17: 1.1.35-1 (antibody, human IgG1, kappa, V domains shown)
VH: B1 VH
VL: B4 VL
B18: 2.2.13-1 (antibody, human IgG1, kappa, V domains shown)
VH: B1 VH with Q3H, L5S, N28K, Y32H, L90V, V97I
VL: B1 VL with T18R, R61S, N68I, N72S, N73S
B19: 2.3.13-1 (antibody, human IgG1, kappa, V domains shown)
VH: B1 VH with Q3H, L5S, L90V, V97I
VL: B1 VL with T18R, R61S, N68I, N72S, N73S
B20: 1.1.118-1 (antibody, human IgG1, kappa, V domains shown)
VH: B1 VH
VL: B1 VL with R14S, T18R, A56S, R61S, N68I, N72S, N73S, V79I
B21: 1.1.119-1 (antibody, human IgG1, kappa, V domains shown)
VH: B1 VH
VL: B1 VL with R14S, T18R, A56S, R61S, N68T, N72S, N73S, V79I
B22: 2.2.9-1 (antibody, human IgG1, kappa, V domains shown)
VH: B1 VH with Q3H, L5S, N28K, Y32H, L90V, V97I
VL: B1 VL
B23: 2.2.7-1 (antibody, human IgG1, kappa, V domains shown)
VH: B1 VH with Q3H, L5S, N28K, Y32H, L90V, V97I
VL: B1 VL with T18R, R61S, N68T, N72S, N73S
B24: 1.33.35-1 (antibody, human IgG1, kappa, V domains shown)
VH: B1 VH with L5V, A10E, T12K, E23K, S69T, V97T
VL: B4 VL
B25: 2.3.7-1 (antibody, human IgG1, kappa, V domains shown)
VH: B1 VH with Q3H, L5S, L90V, V97I
VL: B1 VL with T18R, R61S, N68T, N72S, N73S
B26: 2.2.12-1 (antibody, human IgG1, kappa, V domains shown)
VH: B1 VH with Q3H, L5S, N28K, Y32H, L90V, V97I
VL: B1 VL with N68I
B27: 1.1.117-1 (antibody, human IgG1, kappa, V domains shown)
VH: B1 VH
VL: B1 VL with R14S, A56S, N68I, V79I
B28: 2.3.17-1 (antibody, human IgG1, kappa, V domains shown)
VH: B1 VH with Q3H, L5S, L90V, V97I
VL: B1 VL with N68H
B29: 1.31.35-1 (antibody, human IgG1, kappa, V domains shown)
VH: B1 VH with L5V, A10E, V97T
VL: B4 VL
B30: 1.12.17-1 (antibody, human IgG1, kappa, V domains shown)
VH: B1 VH with W37V
VL: B1 VL with R14S, A19V, A56S, V79I
B31: 2.2.15-1 (antibody, human IgG1, kappa, V domains shown)
VH: B1 VH with Q3H, L5S, N28K, Y32H, L90V, V97I
VL: B1 VL with N68T
B32: 3.1.15-1 (antibody, human IgG1, kappa, V domains shown)
VH: B1 VH
VL: B1 VL with N68T
B33: 1.1.104-1 (antibody, human IgG1, kappa, V domains shown)
VH: B1 VH
VL: B1 VL with R14S, A56S, N68T, V79I
B34: 2.3.15-1 (antibody, human IgG1, kappa, V domains shown)
VH: B1 VH with Q3H, L5S, L90V, V97I
VL: B1 VL with N68T
B35: 2.2.17-1 (antibody, human IgG1, kappa, V domains shown)
VH: B1 VH with Q3H, L5S, N28K, Y32H, L90V, V97I
VL: B1 VL with N68H
B36: 1.35.35-1 (antibody, human IgG1, kappa, V domains shown)
VH: QVQLVQSGAEVKKPGASVRVSCKASGYNIRDYFMHWWRQAPGQGLQWVGWINPKTGQPNNPRQFQGRVTMTRHASWDFDTFSFYMDLSRLRSDDTATYFCARQRTDYWDFDVWGQGTMVTVSS
VL: B4 VL
B37: 1.36.35-1 (antibody, human IgG1, kappa, V domains shown)
VH: B36 VH with F83A
VL: B4 VL

Assays:
[1] = target: HIV-1 envelope glycoprotein (gp120) of virus VS001 (HIV-1); assay: cell-based or functional assay
[2] = target: HIV-1 envelope glycoprotein (gp120) of virus 92US727 (HIV-1); assay: cell-based or functional assay
[3] = target: HIV-1 envelope glycoprotein (gp120) of virus 7141 (HIV-1); assay: cell-based or functional assay
[4] = target: BSA (UniProt P02769); assay: single-point ELISA

Row | Binder | Neutralization IC50 [1] [µg/mL] | Neutralization IC50 [2] [µg/mL] | Neutralization IC50 [3] [µg/mL] | ELISA (A450) [4] [A450]
1 | B1 | 0.16 | 3.54 | 4.35 | –
2 | B2 | 3 | > 50 | 22.7 | –
3 | B3 | 0.3 | > 50 | 5.65 | –
4 | B4 | – | – | – | 0.06
5 | B5 | 2.21 | > 50 | 25.5 | –
6 | B6 | 3.52 | > 9.8 | > 9.8 | –
7 | B7 | 0.22 | 11.1 | 2.56 | –
8 | B8 | 0.56 | > 21 | 13.2 | –
9 | B9 | – | – | – | 0.06
10 | B10 | 2.37 | > 23 | > 23 | –
11 | B11 | 2.51 | > 34 | 5.04 | –
12 | B12 | – | – | – | 0.06
13 | B13 | 1.92 | > 50 | 23.8 | –
14 | B14 | 2.41 | > 41 | 24.5 | –
15 | B15 | 3.3 | > 50 | 29.5 | –
16 | B16 | – | – | – | 0.1
17 | B17 | – | – | – | 0.08
18 | B18 | 1.48 | > 50 | 3.8 | –
19 | B19 | 1.5 | > 38 | 15.5 | –

Row | Binder | Neutralization IC50 [1] [µg/mL] | Neutralization IC50 [2] [µg/mL] | Neutralization IC50 [3] [µg/mL] | ELISA (A450) [4] [A450]
20 | B20 | 2.4 | > 50 | 20.2 | –
21 | B21 | 0.39 | > 50 | 6.92 | –
22 | B22 | 0.15 | 13.1 | 1.75 | –
23 | B23 | 0.27 | > 50 | 1.58 | –
24 | B24 | – | – | – | 0.07
25 | B25 | 0.47 | > 50 | 5.08 | –
26 | B26 | 2.1 | > 50 | 7.08 | –
27 | B27 | 3.03 | > 50 | 16.9 | –
28 | B28 | 4.54 | > 50 | 31.3 | –
29 | B29 | – | – | – | 0.06
30 | B30 | – | – | – | 0.06
31 | B31 | 0.37 | > 50 | 1.99 | –
32 | B32 | 0.49 | > 33 | 9.1 | –
33 | B33 | 0.45 | > 50 | 5.13 | –
34 | B34 | 0.85 | > 50 | 5.93 | –
35 | B35 | 4.38 | > 50 | 6.28 | –
36 | B36 | – | – | – | 0.06
37 | B37 | – | – | – | 0.06
